How the values were obtained:
[1] = target: RNAP (core or holo not stated) (UniProt P0A7Z4;P0A8V2;P0A8T7 1-329;1-1342;1-1407); experiment: competition; unlabeled IsrA 15-fold excess vs labeled IsrA; yeast RNA, heparin after; EMSA (Figs 3B, 4): 1x buffer 15 mM Tris-HCl pH 8, 100 mM KCl, 1 mM MgCl2, 1 mM DTT, 1 ug yeast RNA, 37 C 10-20 min, then heparin on ice; Fig 3A as in ref 29 without yeast RNA; pull-down: 10 mM Tris-HCl pH 7.8, 200 mM KCl, 1 mM MgCl2, 5% glycerol, 1 mM DTT, 4 C, heparin 100 ug/ml wash; details: protein: native; chain copies: 2;1;1; label: 32P; three stem-loops
RNAP core enzyme;sigma70 = RNAP core enzyme;sigma70 (Escherichia coli?;Escherichia coli?, UniProt P0A7Z4;P0A8V2;P0A8T7;P00579 1-329;1-1342;1-1407;1-613, |); experiment: EMSA; heparin added after complex formation (heparin-resistant); EMSA (Figs 3B, 4): 1x buffer 15 mM Tris-HCl pH 8, 100 mM KCl, 1 mM MgCl2, 1 mM DTT, 1 ug yeast RNA, 37 C 10-20 min, then heparin on ice; Fig 3A as in ref 29 without yeast RNA; pull-down: 10 mM Tris-HCl pH 7.8, 200 mM KCl, 1 mM MgCl2, 5% glycerol, 1 mM DTT, 4 C, heparin 100 ug/ml wash; details: protein: native;recombinant; tags: ;; chain copies: 2;1;1;1; label: 32P; three stem-loops
RNAP core enzyme = RNAP core enzyme (UniProt P0A7Z4;P0A8V2;P0A8T7 1-329;1-1342;1-1407); experiment: as above; details: protein: native; chain copies: 2;1;1; label: 32P; three stem-loops

Measured: binding result

Sequence of RNAP core enzyme;sigma70 (P0A7Z4 whole entry, chain 1 of 4): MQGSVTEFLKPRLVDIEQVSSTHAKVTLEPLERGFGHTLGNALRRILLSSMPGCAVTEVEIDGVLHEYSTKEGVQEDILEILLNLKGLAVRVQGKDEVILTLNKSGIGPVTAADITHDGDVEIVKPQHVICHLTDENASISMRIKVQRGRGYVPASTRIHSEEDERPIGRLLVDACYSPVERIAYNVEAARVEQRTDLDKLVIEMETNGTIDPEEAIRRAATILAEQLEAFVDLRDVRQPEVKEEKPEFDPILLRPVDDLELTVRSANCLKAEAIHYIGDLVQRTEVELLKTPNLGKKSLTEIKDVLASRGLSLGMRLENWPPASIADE
Sequence of RNAP core enzyme;sigma70 (P0A8V2 whole entry, chain 2 of 4): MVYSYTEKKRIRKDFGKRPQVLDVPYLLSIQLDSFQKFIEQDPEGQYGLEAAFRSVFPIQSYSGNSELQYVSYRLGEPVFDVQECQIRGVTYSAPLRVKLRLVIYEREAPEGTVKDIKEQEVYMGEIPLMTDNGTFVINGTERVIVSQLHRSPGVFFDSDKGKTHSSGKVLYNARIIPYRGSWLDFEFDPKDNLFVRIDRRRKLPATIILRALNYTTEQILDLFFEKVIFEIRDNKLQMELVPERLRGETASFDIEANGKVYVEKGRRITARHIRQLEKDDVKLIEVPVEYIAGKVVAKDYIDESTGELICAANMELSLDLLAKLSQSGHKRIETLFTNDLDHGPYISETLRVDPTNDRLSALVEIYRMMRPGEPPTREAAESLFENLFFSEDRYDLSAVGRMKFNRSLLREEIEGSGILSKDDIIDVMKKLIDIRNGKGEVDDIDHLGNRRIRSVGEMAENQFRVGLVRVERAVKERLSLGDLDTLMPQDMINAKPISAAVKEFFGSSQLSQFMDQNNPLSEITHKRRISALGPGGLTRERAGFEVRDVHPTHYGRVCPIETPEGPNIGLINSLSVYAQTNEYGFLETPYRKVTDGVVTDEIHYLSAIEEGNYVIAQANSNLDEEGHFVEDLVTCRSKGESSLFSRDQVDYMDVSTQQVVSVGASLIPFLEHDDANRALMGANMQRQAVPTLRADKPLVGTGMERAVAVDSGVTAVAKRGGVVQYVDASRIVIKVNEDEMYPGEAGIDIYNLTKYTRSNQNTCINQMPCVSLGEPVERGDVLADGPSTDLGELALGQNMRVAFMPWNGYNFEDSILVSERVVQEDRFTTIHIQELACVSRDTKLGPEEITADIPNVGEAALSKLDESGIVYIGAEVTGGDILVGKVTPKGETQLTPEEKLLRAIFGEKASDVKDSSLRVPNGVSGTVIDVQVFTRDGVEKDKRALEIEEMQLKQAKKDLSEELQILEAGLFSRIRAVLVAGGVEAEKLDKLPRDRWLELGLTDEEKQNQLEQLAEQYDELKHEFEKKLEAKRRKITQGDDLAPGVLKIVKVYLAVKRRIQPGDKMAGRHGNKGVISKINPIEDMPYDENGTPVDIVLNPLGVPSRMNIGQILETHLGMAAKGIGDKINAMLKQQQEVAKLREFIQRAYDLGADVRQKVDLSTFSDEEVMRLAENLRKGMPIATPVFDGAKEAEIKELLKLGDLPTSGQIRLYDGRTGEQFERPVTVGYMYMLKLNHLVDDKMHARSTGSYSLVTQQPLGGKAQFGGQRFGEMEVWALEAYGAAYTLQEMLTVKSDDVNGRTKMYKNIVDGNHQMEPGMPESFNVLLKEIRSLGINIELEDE
Sequence of RNAP core enzyme;sigma70 (P0A8T7 whole entry, chain 3 of 4): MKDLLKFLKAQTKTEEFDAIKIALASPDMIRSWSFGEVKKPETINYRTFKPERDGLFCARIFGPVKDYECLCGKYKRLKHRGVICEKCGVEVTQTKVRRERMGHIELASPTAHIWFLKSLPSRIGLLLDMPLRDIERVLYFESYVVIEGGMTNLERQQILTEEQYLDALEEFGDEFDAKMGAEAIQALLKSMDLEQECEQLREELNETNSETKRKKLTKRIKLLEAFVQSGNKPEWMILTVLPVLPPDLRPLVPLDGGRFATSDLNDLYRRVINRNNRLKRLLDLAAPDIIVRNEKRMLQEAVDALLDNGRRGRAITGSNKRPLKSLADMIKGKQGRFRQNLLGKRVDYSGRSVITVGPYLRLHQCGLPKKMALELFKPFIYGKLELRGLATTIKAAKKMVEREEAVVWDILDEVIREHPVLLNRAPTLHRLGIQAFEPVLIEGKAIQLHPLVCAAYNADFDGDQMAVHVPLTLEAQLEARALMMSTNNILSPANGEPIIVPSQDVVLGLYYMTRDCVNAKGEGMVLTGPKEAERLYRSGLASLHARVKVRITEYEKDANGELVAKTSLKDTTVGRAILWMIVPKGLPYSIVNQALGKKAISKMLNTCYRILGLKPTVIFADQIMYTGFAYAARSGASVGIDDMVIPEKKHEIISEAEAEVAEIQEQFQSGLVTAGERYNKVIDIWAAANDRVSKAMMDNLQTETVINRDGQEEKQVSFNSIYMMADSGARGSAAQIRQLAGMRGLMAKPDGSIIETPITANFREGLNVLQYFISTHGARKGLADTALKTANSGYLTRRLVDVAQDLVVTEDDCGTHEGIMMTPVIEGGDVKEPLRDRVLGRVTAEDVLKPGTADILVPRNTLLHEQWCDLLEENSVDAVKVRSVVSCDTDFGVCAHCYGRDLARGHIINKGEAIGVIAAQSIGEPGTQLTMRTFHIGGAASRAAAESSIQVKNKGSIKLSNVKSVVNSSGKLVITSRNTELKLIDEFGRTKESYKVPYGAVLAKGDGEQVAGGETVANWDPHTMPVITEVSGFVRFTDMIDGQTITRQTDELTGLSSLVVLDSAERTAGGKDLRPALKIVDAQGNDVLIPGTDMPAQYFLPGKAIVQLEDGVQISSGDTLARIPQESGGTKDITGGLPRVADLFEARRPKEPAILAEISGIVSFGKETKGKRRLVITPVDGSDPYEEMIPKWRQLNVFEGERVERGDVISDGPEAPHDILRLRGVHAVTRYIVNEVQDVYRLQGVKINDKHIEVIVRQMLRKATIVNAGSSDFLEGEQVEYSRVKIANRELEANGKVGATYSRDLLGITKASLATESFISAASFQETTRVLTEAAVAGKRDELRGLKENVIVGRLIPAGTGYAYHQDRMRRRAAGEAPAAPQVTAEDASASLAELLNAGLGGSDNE
Sequence of RNAP core enzyme;sigma70 (P00579 whole entry, chain 4 of 4): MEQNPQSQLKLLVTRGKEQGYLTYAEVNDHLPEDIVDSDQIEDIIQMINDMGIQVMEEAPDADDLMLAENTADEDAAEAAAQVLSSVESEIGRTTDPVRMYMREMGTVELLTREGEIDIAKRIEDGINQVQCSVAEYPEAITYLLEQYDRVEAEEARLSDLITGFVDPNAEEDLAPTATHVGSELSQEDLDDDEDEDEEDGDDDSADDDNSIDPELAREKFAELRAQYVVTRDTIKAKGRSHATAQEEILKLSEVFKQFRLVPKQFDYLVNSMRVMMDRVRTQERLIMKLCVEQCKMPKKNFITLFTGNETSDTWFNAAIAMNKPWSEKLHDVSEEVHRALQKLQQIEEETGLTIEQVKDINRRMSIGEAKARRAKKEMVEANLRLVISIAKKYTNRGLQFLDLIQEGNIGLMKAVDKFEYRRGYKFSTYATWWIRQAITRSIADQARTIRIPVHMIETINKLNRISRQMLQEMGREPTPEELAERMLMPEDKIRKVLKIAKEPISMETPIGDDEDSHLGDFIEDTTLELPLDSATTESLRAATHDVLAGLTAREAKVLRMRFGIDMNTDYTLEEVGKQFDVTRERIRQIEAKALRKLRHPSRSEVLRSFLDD

B1: IsrA (IS61, McaS) (structured_RNA)
RNA: ACCGGCGCAGAGGAGACAAUGCCGGAUUUAAGACGCGGAUGCACUGCUGUGUGUACUGUAGAGUCUGGCGGAUGUCGACAGACUCUAUUUUUUU
binds: [1] | RNAP core enzyme;sigma70 | RNAP core enzyme
